From IntAct's records for PubMed 24510189

B1: mRNA-decapping enzyme 1A (Homo sapiens), Q9NPI6 (parent)
chain: MEALSRAGQEMSLAALKQHDPYITSIADLTGQVALYTFCPKANQWEKTDIEGTLFVYRRSASPYHGFTIVNRLNMHNLVEPVNKDLEFQLHEPFLLYRNASLSIYSIWFYDKNDCHRIAKLMADVVEEETRRSQQAARDKQSPSQANGCSDHRPIDILEMLSRAKDEYERNQMGDSNISSPGLQPSTQLSNLGSTETLEEMPSGSQDKSAPSGHKHLTVEELFGTSLPKEQPAVVGLDSEEMERLPGDASQKEPNSFLPFPFEQLGGAPQSETLGVPSAAHHSVQPEITTPVLITPASITQSNEKHAPTYTIPLSPVLSPTLPAEAPTAQVPPSLPRNSTMMQAVKTTPRQRSPLLNQPVPELSHASLIANQSPFRAPLNVTNTAGTSLPSVDLLQKLRLTPQHDQIQTQPLGKGAMVASFSPAAGQLATPESFIEPPSKTAAARVAASASLSNMVLAPLQSMQQNQDPEVFVQPKVLSSAIPVAGAPLVTATTTAVSSVLLAPSVFQQTVTRSSDLERKASSPSPLTIGTPESQRKPSIILSKSQLQDTLIHLIKNDSSFLSTLHEVYLQVLTKNKDNHNL
B2: mRNA-decapping enzyme 1A (Homo sapiens), Q9NPI6 (parent)
chain: B1 chain
partner: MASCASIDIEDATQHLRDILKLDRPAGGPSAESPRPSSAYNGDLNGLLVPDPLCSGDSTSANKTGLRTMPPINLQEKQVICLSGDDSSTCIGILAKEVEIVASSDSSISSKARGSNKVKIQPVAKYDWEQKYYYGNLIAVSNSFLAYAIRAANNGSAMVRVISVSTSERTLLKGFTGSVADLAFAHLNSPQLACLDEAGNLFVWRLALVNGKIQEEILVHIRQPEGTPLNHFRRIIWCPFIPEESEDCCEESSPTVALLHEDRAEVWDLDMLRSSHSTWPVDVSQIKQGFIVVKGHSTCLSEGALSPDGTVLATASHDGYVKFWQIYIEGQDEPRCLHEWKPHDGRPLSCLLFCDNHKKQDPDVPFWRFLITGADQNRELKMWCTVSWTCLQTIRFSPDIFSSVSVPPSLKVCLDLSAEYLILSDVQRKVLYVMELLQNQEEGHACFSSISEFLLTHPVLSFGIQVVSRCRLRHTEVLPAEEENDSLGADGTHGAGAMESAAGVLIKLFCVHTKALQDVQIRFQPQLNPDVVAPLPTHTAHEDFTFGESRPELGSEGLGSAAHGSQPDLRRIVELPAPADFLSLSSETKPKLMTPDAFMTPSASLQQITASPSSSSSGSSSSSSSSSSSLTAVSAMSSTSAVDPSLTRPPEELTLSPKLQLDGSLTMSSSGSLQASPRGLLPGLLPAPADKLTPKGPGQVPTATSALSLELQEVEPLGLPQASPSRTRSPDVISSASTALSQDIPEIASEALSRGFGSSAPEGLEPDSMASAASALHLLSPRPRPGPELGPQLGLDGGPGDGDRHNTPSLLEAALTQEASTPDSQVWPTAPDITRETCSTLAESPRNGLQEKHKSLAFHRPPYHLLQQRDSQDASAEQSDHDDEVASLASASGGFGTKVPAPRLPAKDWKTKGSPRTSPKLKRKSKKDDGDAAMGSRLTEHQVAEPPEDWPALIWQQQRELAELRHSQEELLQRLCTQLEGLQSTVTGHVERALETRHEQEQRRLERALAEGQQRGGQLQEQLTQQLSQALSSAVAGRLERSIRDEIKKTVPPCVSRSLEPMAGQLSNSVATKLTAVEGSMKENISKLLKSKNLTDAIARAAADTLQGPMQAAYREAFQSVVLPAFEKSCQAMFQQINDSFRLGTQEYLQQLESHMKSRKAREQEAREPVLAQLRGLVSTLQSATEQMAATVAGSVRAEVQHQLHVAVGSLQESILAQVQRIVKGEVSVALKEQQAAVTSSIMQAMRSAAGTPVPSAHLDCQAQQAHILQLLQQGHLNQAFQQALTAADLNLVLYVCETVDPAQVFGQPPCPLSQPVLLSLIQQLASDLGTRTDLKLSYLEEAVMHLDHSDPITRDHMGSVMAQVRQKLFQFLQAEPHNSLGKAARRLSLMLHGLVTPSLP

Variants of: B1
Details: with dcp2_human DCP2, Q8IU60

Row | Variant | effect of a mutation on the interaction
1 | MEALSRAGQEMSLAALKQHDPYITSIADLTGQVALYTFCPKANQWEKTDIEGTLFVYRRSASPYHGFTIVNGSSGHNLVEPVNKDLEFQLHEPFLLYRNASLSIYSIWFYDKNDCHRIAKLMADVVEEETRRSQQAARDKQSPSQANGCSDHRPIDILEMLSRAKDEYERNQMGDSNISSPGLQPSTQLSNLGSTETLEEMPSGSQDKSAPSGHKHLTVEELFGTSLPKEQPAVVGLDSEEMERLPGDASQKEPNSFLPFPFEQLGGAPQSETLGVPSAAHHSVQPEITTPVLITPASITQSNEKHAPTYTIPLSPVLSPTLPAEAPTAQVPPSLPRNSTMMQAVKTTPRQRSPLLNQPVPELSHASLIANQSPFRAPLNVTNTAGTSLPSVDLLQKLRLTPQHDQIQTQPLGKGAMVASFSPAAGQLATPESFIEPPSKTAAARVAASASLSNMVLAPLQSMQQNQDPEVFVQPKVLSSAIPVAGAPLVTATTTAVSSVLLAPSVFQQTVTRSSDLERKASSPSPLTIGTPESQRKPSIILSKSQLQDTLIHLIKNDSSFLSTLHEVYLQVLTKNKDNHNL [R72G;L73S;N74S;M75G] | with no effect
2 | MEALSRAGQEMSLAALKQHDPYITSIADLTGQVALYTFCPKANQWEKTDIEGTLFVYRRSASPYHGFTIVNGLNMHNLVEPVNKDLEFQLHEPFLLYRNASLSIYSIWFYDKNDCHRIAKLMADVVEEETRRSQQAARDKQSPSQANGCSDHRPIDILEMLSRAKDEYERNQMGDSNISSPGLQPSTQLSNLGSTETLEEMPSGSQDKSAPSGHKHLTVEELFGTSLPKEQPAVVGLDSEEMERLPGDASQKEPNSFLPFPFEQLGGAPQSETLGVPSAAHHSVQPEITTPVLITPASITQSNEKHAPTYTIPLSPVLSPTLPAEAPTAQVPPSLPRNSTMMQAVKTTPRQRSPLLNQPVPELSHASLIANQSPFRAPLNVTNTAGTSLPSVDLLQKLRLTPQHDQIQTQPLGKGAMVASFSPAAGQLATPESFIEPPSKTAAARVAASASLSNMVLAPLQSMQQNQDPEVFVQPKVLSSAIPVAGAPLVTATTTAVSSVLLAPSVFQQTVTRSSDLERKASSPSPLTIGTPESQRKPSIILSKSQLQDTLIHLIKNDSSFLSTLHEVYLQVLTKNKDNHNL [R72G] | with no effect

Variants of: B1
Details: with pnrc2_human PNRC2, Q9NPJ4
pnrc2_human PNRC2, Q9NPJ4, sequence (Q9NPJ4 whole entry): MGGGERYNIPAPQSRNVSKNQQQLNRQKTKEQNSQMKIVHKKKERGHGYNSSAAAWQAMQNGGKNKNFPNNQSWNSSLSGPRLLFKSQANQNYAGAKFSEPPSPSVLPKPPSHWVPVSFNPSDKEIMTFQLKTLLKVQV

Row | Variant | effect of a mutation on the interaction
3 | MEALSRAGQEMSLAALKQHDPYITSIADLTGQVALYTFCPKANQWEKTDIEGTLFVYRRSASPYHGFTIVNGSSGHNLVEPVNKDLEFQLHEPFLLYRNASLSIYSIWFYDKNDCHRIAKLMADVVEEETRRSQQAARDKQSPSQANGCSDHRPIDILEMLSRAKDEYERNQMGDSNISSPGLQPSTQLSNLGSTETLEEMPSGSQDKSAPSGHKHLTVEELFGTSLPKEQPAVVGLDSEEMERLPGDASQKEPNSFLPFPFEQLGGAPQSETLGVPSAAHHSVQPEITTPVLITPASITQSNEKHAPTYTIPLSPVLSPTLPAEAPTAQVPPSLPRNSTMMQAVKTTPRQRSPLLNQPVPELSHASLIANQSPFRAPLNVTNTAGTSLPSVDLLQKLRLTPQHDQIQTQPLGKGAMVASFSPAAGQLATPESFIEPPSKTAAARVAASASLSNMVLAPLQSMQQNQDPEVFVQPKVLSSAIPVAGAPLVTATTTAVSSVLLAPSVFQQTVTRSSDLERKASSPSPLTIGTPESQRKPSIILSKSQLQDTLIHLIKNDSSFLSTLHEVYLQVLTKNKDNHNL [R72G;L73S;N74S;M75G] | with no effect

Variants of: B2
Details: with edc4_human EDC4, Q6P2E9

Row | Variant | effect of a mutation on the interaction
4 | MEALSRAGQEMSLAALKQHDPYITSIADLTGQVALYTFCPKANQWEKTDIEGTLFVYRRSASPYHGFTIVNGSSGHNLVEPVNKDLEFQLHEPFLLYRNASLSIYSIWFYDKNDCHRIAKLMADVVEEETRRSQQAARDKQSPSQANGCSDHRPIDILEMLSRAKDEYERNQMGDSNISSPGLQPSTQLSNLGSTETLEEMPSGSQDKSAPSGHKHLTVEELFGTSLPKEQPAVVGLDSEEMERLPGDASQKEPNSFLPFPFEQLGGAPQSETLGVPSAAHHSVQPEITTPVLITPASITQSNEKHAPTYTIPLSPVLSPTLPAEAPTAQVPPSLPRNSTMMQAVKTTPRQRSPLLNQPVPELSHASLIANQSPFRAPLNVTNTAGTSLPSVDLLQKLRLTPQHDQIQTQPLGKGAMVASFSPAAGQLATPESFIEPPSKTAAARVAASASLSNMVLAPLQSMQQNQDPEVFVQPKVLSSAIPVAGAPLVTATTTAVSSVLLAPSVFQQTVTRSSDLERKASSPSPLTIGTPESQRKPSIILSKSQLQDTLIHLIKNDSSFLSTLHEVYLQVLTKNKDNHNL [R72G;L73S;N74S;M75G] | with no effect
5 | MEALSRAGQEMSLAALKQHDPYITSIADLTGQVALYTFCPKANQWEKTDIEGTLFVYRRSASPYHGFTIVNRLGMHNLVEPVNKDLEFQLHEPFLLYRNASLSIYSIWFYDKNDCHRIAKLMADVVEEETRRSQQAARDKQSPSQANGCSDHRPIDILEMLSRAKDEYERNQMGDSNISSPGLQPSTQLSNLGSTETLEEMPSGSQDKSAPSGHKHLTVEELFGTSLPKEQPAVVGLDSEEMERLPGDASQKEPNSFLPFPFEQLGGAPQSETLGVPSAAHHSVQPEITTPVLITPASITQSNEKHAPTYTIPLSPVLSPTLPAEAPTAQVPPSLPRNSTMMQAVKTTPRQRSPLLNQPVPELSHASLIANQSPFRAPLNVTNTAGTSLPSVDLLQKLRLTPQHDQIQTQPLGKGAMVASFSPAAGQLATPESFIEPPSKTAAARVAASASLSNMVLAPLQSMQQNQDPEVFVQPKVLSSAIPVAGAPLVTATTTAVSSVLLAPSVFQQTVTRSSDLERKASSPSPLTIGTPESQRKPSIILSKSQLQDTLIHLIKNDSSFLSTLHEVYLQVLTKNKDNHNL [N74G] | with no effect
